This data set in a line: soluble on expression in E. coli; label from the status in PepcDB or PDB records.
For the sequence “MGSDKIHHHHHHMRAYDVILKKRNGEKLSREEIEFMVGGYVKGEIPDYQMAAFLMAVYFRHLDEEETYYFTETMMRSGEVLDLSEIPGTKVDKHSTGGVGDKTTLVVAPLVASAGVPVAKMSGRALGHTGGTIDKLESIPGFRTELSLEEFIKNVKKYGIAIVGQTGNLVPADKKIYALRDATATVDEISLIASSIMSKKLAGGSDAFVLDVKFGTGAFMKGFEDAKKLAFLMLRIAQQHGKKAVAVLSNMDQPLGKAVGNSLEVIEAIETLKGNGPEDLKELSLTLGALMLELAGVADFEEGKKILQEKLETGEALDKFRLLVKAQGGNERVVDDPWRVLPVAEQVVEFSAAREGFVSKIDAEKVGIASMMLGAGRKKKEDRIDHSVGIIVEKKLGDSVKKGEAIARLFVSDRSDVESALKLLKEAYVISDSPSEPPRVVEEVIK”, the “soluble on expression in E. coli” value was “not soluble”. As for “MVYLYKKGVGMNEQSQAKSPEALRAMVAGTLANFQHPTLKHNLTTLKALHHVAWMDDTLHVELVMPFVWHSAFEELKEQCSAELLRITGAKAIDWKLSHNIATLKRVKNQPGINGVKNIIAVSSGKGGVGKSSTAVNLALALAAEGAKVGILDADIYGPSIPTMLGAENQRPTSPDGTHMAPIMSHGLATNSIGYLVTDDNAMVWRGPMASKALMQMLQETLWPDLDYLVLDMPPGTGDIQLTLAQNIPVTGAVVVTTPQDIALIDAKKGIVMFEKVEVPVLGIVENMSVHICSNCGHHEPIFGTGGAEKLAEKYHTQLLGQMPLHISLREDLDKGTPTVISRPESEFTAIYRQLADRVAAQLYWQGEVIPGEISFRAVLEHHHHHH”, the entry is “not soluble”; as for “SNAMFHYTVDVSTGMNETIERLEESLKQEGFGVLWQFSVTEKLQEKGLDFSTPMVILEVCNPQEAARVLNENLLVGYFLPCKLVVYQENGTTKIGMPKPTMLVGMMNDPALKEIAADIEKRLAACLDRCR”, “soluble”; as for “TGCSVTATRAEEWSDGFNVTYSVSGSSAWTVNLALNGSQTIQASWNANVTGSGSTRTVTPNGSGNTFGVTVMKNGSSTTPAATCAGS”, “soluble”. As to “MGSDKIHHHHHHVAQDVITQAPLGFGLGLRTQHFDAVLNTEPDIDWFEVLSENYMVAGGKPRYYLKEIGERYPLVMHGVSLSIGSTDPLNMDYLKALKQLANDVQPQWISDHICWTSIHGVNSHDLLPLPYTEETVKHVAQRIKTVQDFLGRRILMENVSSYLSYQDSSMDEWEFVNAVAEAADCLILLDINNIYVSARNHNFNPLDYLNKINPKRVQQFHLAGHSDYGDYVIDTHDHDVPSCVWDLYCAALKRFGGISTMIERDANIPEFYALEAELTIARNIARDTLGKAHPLNAAKNRKNMHEGKVIA”, the “soluble on expression in E. coli” value is “not soluble”. On to “MGSDKIHHHHHHMMNTSTSDPIGAAWLIRYASIELVSPLYITSSIGGRRQTYKEGNVIHNAYQETARPLDTIIAHLQFHMRHEVLNLELLVRLFEQIGADDVQAWVNAEPTGSYARRMAFLYEWLMDKELAVSSNLGGNYVDALDTKKMVTSSPEHIIKNARWRINDNLAGTRHFCPMLVKTEAFTQAAALDIATMVEKLNDEFGQDLLMRASVWMTLRESKASFTIEGEGKELKRIERFAEVMARRTGKGDIPLDPESLAELQQEILGSKTVIQQYGIRQSPVFVSHTQVNGFKEIVHYIAPPSEDIAYKLTGLQALMKKTEGQSALMRSAVASFAFVYIHPLADGNGRVHRFLINDVLRRDQVIHEPIILPISQAIAEHPSDRHAYDKILDRVSVPLMRQIRDHYRFDKQAVTYPDGIRSNLNFADSHLIQPAWRFMDLTPHVQYLSGLIAHVIEKEMHNESQYLRQHDHARLAIKEIVEMPNSYADRIIRSMLQNKGAKSNKLLQDYPFLANEAVWDDVFSVVVEIFK”, for which the “soluble on expression in E. coli” value is reported as “not soluble”.

For “MDPSSKPLREIPGSYGIPFFQPIKDRLEYFYGTGGRDEYFRSRMQKYQSTVFRANMPPGPFVSSNPKVIVLLDAKSFPILFDVSKVEKKDLFTGTYMPSTKLTGGYRVLSYLDPSEPRHAQLKNLLFFMLKNSSNRVIPQFETTYTELFEGLEAELAKNGKAAFNDVGEQAAFRFLGRAYFNSNPEETKLGTSAPTLISSWVLFNLAPTLDLGLPWFLQEPLLHTFRLPAFLIKSTYNKLYDYFQSVATPVMEQAEKLGVPKDEAVHNILFAVCFNTFGGVKILFPNTLKWIGLAGENLHTQLAEEIRGAIKSYGDGNVTLEAIEQMPLTKSVVYESLRIEPPVPPQYGKAKSNFTIESHDATFEVKKGEMLFGYQPFATKDPKVFDRPEEYVPDRFVGDGEALLKYVWWSNGPETESPTVENKQCAGKDFVVLITRLFVIELFRRYDSFEIELGESPLGAAVTLTFLKRASI”, the “soluble on expression in E. coli” value is given as “soluble”.

The values above are taken from the DeepSol protein solubility set.
